Here are results for four molecules from PMC1540728.

Assay in all cases: NMR titration
In one series the target is T1, hnRNP F qRRM2 (Homo sapiens, UniProt P52597 103-194).
T1 sequence: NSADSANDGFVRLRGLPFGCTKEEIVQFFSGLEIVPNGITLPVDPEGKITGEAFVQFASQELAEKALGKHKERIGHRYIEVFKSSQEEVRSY

The next series concerns the target T2, hnRNP F qRRM3 (Homo sapiens, UniProt P52597 277-381).
T2 sequence: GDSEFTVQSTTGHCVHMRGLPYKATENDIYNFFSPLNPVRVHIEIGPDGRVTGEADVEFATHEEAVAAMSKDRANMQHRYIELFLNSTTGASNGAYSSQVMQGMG

In a further series the target is T3, hnRNP F qRRM1-2 (Homo sapiens, UniProt P52597 1-194).
T3 sequence: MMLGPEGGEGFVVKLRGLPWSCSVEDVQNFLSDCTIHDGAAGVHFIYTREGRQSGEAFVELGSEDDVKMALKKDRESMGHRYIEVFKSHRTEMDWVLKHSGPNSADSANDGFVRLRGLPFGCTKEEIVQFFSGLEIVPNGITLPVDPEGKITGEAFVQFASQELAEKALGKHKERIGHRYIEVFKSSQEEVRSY

With GGG (ssRNA) [GGG RNA], in the series with hnRNP F qRRM2, the binding result is “binds”.

Take UGCAUG (ssRNA) [Fox RNA-binding site UGCAUG]: the binding result with hnRNP F qRRM2 is on record as “no binding”.

Take CUGGGGU (structured_RNA) [Bcl-x third G-tract RNA]: the binding result in the series with hnRNP F qRRM3 is “no binding”.

For CGGGAUGGGGUA (structured_RNA) [Bcl-x G-tracts 1-2 RNA], in the series with hnRNP F qRRM1-2, the binding result is listed as “binds”.
